By Kd is commonly meant a measure of binding affinity in units of concentration. The low end stands for higher affinity, the high end for lower affinity. In general, koff refers to the rate constant with which the complex falls apart. High values mean fast dissociation, low ones slow dissociation. One may read the kon as the second-order rate constant of association.

Four molecules from patent US20240182536A1 (MURAL ONCOLOGY, published 2024) can be followed below.

Where two headings read alike, the source gives them in different places.

For test [1], the target named is T1, human IL-18 binding protein (IL-18BP) (human, UniProt O95998 31-194).
T1 construct: also called hu IL-18BP; hIL18BP
T1 sequence (looked up): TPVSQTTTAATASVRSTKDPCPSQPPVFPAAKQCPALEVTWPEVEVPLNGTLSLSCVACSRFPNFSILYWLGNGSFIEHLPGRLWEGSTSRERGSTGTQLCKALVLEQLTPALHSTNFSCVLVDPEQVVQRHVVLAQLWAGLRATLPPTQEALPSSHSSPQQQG
Put plainly: Octet BLI. How it is done: (§1) Octet 96red instrument was used to determine affinities of IL18 proteins to BP or receptors. 5-10 ug/ml analyte proteins were used for loading on Sartorius tips (AHC or SA). […] 120-180 s loading, 200 s association and 800 s dissociation were used for kinetics. 3-7 data points were used to calculate affinities.
Select G3/K53-substitution containing IL-18 variants and select G3/K53/N91-substitution containing TL-18 variants were tested for activity in the HEK-blue activity assay and for binding affinity to IL-18BP. As shown in the data of Table 15 and Table 16 below, each variant had similar or better activity than WT IL-18, and retained substantial activity in the presence of IL-18BP.

In test [2] the target is T1, human IL-18 binding protein (IL-18BP). Put plainly: cell-based or functional assay.
Test [3] deals with T2, IL-18 receptors on HEK-Blue IL-18 reporter cells (InvivoGen) (UniProt Q13478 19-541; O95256 20-599).
T2 sequence (looked up) 1: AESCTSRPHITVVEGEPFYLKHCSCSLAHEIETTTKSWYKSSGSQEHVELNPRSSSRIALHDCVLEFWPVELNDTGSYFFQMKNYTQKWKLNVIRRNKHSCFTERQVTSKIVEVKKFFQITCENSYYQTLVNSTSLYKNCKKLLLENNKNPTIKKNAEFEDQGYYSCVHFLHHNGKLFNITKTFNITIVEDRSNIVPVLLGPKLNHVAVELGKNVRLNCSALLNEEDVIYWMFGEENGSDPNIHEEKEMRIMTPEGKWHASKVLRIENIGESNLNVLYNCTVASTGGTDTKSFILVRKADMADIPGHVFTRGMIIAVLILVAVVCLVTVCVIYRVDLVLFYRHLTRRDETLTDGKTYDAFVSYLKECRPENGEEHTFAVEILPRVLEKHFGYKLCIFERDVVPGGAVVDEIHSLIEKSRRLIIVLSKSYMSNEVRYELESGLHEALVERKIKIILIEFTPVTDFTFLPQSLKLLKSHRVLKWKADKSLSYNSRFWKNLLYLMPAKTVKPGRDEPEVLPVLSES
T2 sequence (looked up) 2: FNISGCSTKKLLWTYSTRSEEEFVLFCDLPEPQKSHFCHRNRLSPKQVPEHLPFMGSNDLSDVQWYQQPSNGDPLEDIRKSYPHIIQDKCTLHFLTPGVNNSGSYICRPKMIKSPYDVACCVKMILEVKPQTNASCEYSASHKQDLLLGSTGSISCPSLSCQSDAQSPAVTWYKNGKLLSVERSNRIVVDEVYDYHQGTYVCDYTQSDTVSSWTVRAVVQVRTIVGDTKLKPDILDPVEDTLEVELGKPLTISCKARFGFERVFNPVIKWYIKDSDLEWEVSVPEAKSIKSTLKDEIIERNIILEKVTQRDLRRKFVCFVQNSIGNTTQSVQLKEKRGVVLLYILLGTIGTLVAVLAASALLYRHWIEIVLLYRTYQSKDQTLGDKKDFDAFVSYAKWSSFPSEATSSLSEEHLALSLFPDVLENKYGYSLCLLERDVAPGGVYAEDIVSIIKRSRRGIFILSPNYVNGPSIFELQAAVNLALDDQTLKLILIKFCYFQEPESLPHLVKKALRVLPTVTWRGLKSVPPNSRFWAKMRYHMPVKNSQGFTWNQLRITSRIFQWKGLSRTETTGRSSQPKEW
Put plainly: cell-based or functional assay.

The target in test [4] is T1, human IL-18 binding protein (IL-18BP). Description: Octet BLI. The protocol:
as §1
This is another data set of the same source. A general note: BLI is a label-free optical method that tracks binding on a fibre tip over time.

The target in test [5] is T3, human IL-18R alpha/beta pair (IL-18Rab) (human, UniProt Q13478 19-329; O95256 20-356).
T3 construct: also called hu IL-18Rab
T3 sequence (looked up) 1: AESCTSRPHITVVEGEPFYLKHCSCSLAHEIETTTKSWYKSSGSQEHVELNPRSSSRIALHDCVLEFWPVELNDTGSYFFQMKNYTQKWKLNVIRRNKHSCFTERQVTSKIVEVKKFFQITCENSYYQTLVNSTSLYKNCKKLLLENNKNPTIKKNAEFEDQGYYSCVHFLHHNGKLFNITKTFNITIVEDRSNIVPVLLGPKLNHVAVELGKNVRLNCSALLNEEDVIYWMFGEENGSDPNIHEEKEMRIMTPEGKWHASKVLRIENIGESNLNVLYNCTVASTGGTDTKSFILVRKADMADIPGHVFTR
T3 sequence (looked up) 2: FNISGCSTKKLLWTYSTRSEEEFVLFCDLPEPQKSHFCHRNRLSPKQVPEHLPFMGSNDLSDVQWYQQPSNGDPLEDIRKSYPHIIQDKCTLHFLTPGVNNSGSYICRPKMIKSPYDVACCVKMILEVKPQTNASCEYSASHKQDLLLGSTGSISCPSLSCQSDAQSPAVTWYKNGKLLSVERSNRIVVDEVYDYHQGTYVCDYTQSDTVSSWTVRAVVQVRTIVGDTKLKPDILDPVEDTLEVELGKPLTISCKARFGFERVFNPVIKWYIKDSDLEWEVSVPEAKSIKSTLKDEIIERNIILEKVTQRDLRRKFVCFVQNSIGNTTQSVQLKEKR
Put plainly: Octet BLI. The protocol:
as §1

For test [6], the target named is T4, human IL-18 receptor alpha (IL-18Rα) (human, UniProt Q13478 19-329, limits assumed).
T4 construct: also called hu IL-18Ra; IL-18R alpha
T4 sequence (looked up): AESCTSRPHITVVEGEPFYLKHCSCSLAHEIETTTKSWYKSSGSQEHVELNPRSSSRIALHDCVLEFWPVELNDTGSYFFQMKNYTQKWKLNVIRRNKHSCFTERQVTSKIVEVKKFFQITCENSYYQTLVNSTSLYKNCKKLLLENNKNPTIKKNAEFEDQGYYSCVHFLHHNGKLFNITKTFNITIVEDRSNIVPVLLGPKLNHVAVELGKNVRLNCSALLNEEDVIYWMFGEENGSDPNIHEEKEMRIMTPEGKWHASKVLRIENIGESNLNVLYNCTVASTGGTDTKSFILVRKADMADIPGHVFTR
Put plainly: Octet BLI. How it is done: as §1

Test [7] concerns the target T1, human IL-18 binding protein (IL-18BP). Put plainly: cell-based or functional assay. The source holds these as a separate data set.
The target in test [8] is T2, IL-18 receptors on HEK-Blue IL-18 …. Put plainly: cell-based or functional assay. This is another data set of the same source.
The target of test [9] is T1, human IL-18 binding protein (IL-18BP). Description: cell-based or functional assay. The source holds these as a separate data set.
For test [10], the target named is T2, IL-18 receptors on HEK-Blue IL-18 …. Put plainly: cell-based or functional assay. This is another data set of the same source.
For test [11], the target named is T5, IL-18 receptor (IL-18Rα and IL-18Rβ) (UniProt Q13478 19-541; O95256 20-599, limits assumed).
T5 sequence (looked up) 1: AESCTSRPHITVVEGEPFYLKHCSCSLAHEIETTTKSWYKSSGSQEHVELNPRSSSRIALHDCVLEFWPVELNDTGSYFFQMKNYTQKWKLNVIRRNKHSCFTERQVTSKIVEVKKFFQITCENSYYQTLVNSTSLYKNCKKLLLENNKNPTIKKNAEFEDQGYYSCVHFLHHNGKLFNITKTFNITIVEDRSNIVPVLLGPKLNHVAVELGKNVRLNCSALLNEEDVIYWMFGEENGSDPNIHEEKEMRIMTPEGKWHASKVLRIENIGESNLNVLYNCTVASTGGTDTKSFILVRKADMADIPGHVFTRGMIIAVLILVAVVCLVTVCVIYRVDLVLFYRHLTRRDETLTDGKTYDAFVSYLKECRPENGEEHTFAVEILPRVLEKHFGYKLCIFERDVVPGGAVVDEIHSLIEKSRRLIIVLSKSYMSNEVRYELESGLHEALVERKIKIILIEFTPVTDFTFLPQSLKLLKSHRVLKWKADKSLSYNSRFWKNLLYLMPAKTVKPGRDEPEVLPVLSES
T5 sequence (looked up) 2: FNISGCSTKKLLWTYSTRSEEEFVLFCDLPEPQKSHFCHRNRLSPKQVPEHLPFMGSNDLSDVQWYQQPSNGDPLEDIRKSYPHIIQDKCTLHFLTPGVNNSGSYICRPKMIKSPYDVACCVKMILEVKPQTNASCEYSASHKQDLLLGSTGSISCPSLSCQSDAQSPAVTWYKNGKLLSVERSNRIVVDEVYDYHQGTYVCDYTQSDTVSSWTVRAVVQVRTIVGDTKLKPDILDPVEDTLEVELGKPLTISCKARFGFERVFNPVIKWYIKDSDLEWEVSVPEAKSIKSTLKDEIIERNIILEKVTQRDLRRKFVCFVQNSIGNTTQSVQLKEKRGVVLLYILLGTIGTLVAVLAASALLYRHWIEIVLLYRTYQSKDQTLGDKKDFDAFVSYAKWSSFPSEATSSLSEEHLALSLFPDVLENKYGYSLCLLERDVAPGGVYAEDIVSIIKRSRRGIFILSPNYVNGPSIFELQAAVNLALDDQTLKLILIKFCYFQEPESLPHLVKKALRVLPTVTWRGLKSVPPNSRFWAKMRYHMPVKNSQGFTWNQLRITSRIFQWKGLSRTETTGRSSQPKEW
Put plainly: cell-based or functional assay.

For test [12], the target named is T1, human IL-18 binding protein (IL-18BP). Put plainly: cell-based or functional assay. The source holds these as a separate data set.
The target of test [13] is T2, IL-18 receptors on HEK-Blue IL-18 …. Description: cell-based or functional assay. The source holds these as a separate data set.

B1: IL-18 variant G3A, K53S (ligand)
chain: YFAKLESKLSVIRNLNDQVLFIDQGNRPLFEDMTDSDMRDNAPRTIFIISMYSDSQPRGMAVTISVKSEKISTLSSENKIISFKEMNPPDNIKDTKSDIIFFQRSVPGHDNKMQFESSSYEGYFLASEKERDLFKLILKKEDELGDRSIMFTVQNED
In test [1], B1 registered a Kd of 16.2 nM, a koff of 0.00398 s⁻¹ and a kon of 245000 M⁻¹ s⁻¹. The “HEK-Blue Ec50 (pM), +IL-18BP (50 nM)” value in test [2] was 4.45 pM. Moreover, in test [3], the “HEK-Blue Ec50 (pM), -IL-18BP” value was 1.69 pM.

B2: IL-18 variant G3T, E6K, K53A (ligand)
chain: YFTKLKSKLSVIRNLNDQVLFIDQGNRPLFEDMTDSDMRDNAPRTIFIISMYADSQPRGMAVTISVKSEKISTLSSENKIISFKEMNPPDNIKDTKSDIIFFQRSVPGHDNKMQFESSSYEGYFLASEKERDLFKLILKKEDELGDRSIMFTVQNED
notes: also called G3T, K53A, E6K
B2 returned a Kd in test [4] of 6 nM. In [5], this molecule yielded a dissociation constant (Kd) of 0.32 nM. In [6], this molecule gave a Kd of 10 nM. Further, the “HEK-Blue Activity Assay Ec50 (pM), +300 nM hu IL-18BP” value in [7] amounted to 1.49 pM. Further, the “HEK-Blue Activity Assay Ec50 (pM), -hu IL-18BP” value in test [8] was 0.04 pM. For the same molecule, in test [9], the “Fold Change (BP/NO BP), 50 nM BP” value was determined as 2.79 fold; the “Fold Change (BP/NO BP), 300 nM BP” value stood at 35.2 fold; the “HEK-Blue EC50 pM, +50 nM BP” value is 0.14 pM; the “HEK-blue EC50 (pM) + 300 nM BP” value is 1.49 pM. In [10], the “HEK-Blue EC50 pM, NO BP (50 nM BP run)” value was 0.05 pM and the “HEK-Blue EC50 pM, NO BP (300 nM BP run)” value is 0.04 pM.

B3: IL-18 variant G3T, K53S (ligand)
chain: YFTKLESKLSVIRNLNDQVLFIDQGNRPLFEDMTDSDMRDNAPRTIFIISMYSDSQPRGMAVTISVKSEKISTLSSENKIISFKEMNPPDNIKDTKSDIIFFQRSVPGHDNKMQFESSSYEGYFLASEKERDLFKLILKKEDELGDRSIMFTVQNED
In [1], B3 registered a Kd of 18 nM, a koff of 0.00474 s⁻¹ and a kon of 263000 M⁻¹ s⁻¹. Besides, the “EC50 pM, IFN gamma expression in PBMCs” value in test [11] was 368 pM. Further, the “HEK-Blue Ec50 (pM), +IL-18BP (50 nM)” value in [2] worked out at 5.18 pM. For the same molecule, the “HEK-Blue Ec50 (pM), -IL-18BP” value in test [3] amounted to 2.5 pM.

B4: IL-18 variant G3R, N91W, K53A (ligand)
chain: YFRKLESKLSVIRNLNDQVLFIDQGNRPLFEDMTDSDMRDNAPRTIFIISMYADSQPRGMAVTISVKSEKISTLSSENKIISFKEMNPPDWIKDTKSDIIFFQRSVPGHDNKMQFESSSYEGYFLASEKERDLFKLILKKEDELGDRSIMFTVQNED
notes: also called G3R/K53A/N91W
Take B4: in test [1], the Kd amounted to 1 nM, the koff came to 0.000185 s⁻¹ and the kon was found to be 185000 M⁻¹ s⁻¹. The “EC50 pM, IFN gamma expression in PBMCs” value in [11] worked out at 49.8 pM. The “HEK-Blue Ec50 (pM), +IL-18BP (50 nM)” value in test [12] stood at 4.22 pM. Further, the “HEK-Blue Ec50 (pM), -IL-18BP” value in test [13] is 0.04 pM.
